Results: article PMC11708228, “New mutations in the core Schizosaccharomyces pombe spindle pole body scaffold Ppc89 reveal separable functions in regulating cell division” (G3: Genes | Genomes | Genetics, 2024)

Target: T1, GST-Ppc89(545-687) (S. pombe, UniProt Q10218 545-687)
T1 sequence (looked up): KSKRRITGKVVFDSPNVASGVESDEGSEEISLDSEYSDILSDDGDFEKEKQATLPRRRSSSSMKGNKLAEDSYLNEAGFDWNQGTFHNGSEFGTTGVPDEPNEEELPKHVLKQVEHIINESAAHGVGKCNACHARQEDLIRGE
Assay: pull-down; 10 µg GST-Ppc89 bound to GST beads, blocked with 5% BSA, 10 µg MBP-Sid4 added, 30 min at 4°C in GST-bind buffer (4.3 mM sodium phosphate pH 7.3, 137 mM NaCl, 2.7 mM KCl, 1 mM DTT, 0.1% NP-40); washes up to 300 mM NaCl; SDS-PAGE, Coomassie blue
Settings: both partners purified

B1: MBP-Sid4(546-660) (domain or fragment, S. pombe, UniProt O60187 546-660, looked up)
chain: SQPLTSLNMPDSRFNLAKEKQLYYRLGLQHIDQQCSVETANMLKTVLVQLNIPFAIFPSTIGQVRRQLQQGRRLYQWARNIHYLIYEENMRDGLVSKQCLADMLKKIRELKKRSL
notes: Sid4, S. pombe, 660 aa, residues 546-660 (predicted α-helices 7-11); source: Rosetta2(DE3)pLysS bacteria, purified (amylose resin)
binding result: binds
